# Assay results from patent US20230174642A1, “AFFINITY-MATURATED ANTI-ASIC1a ANTIBODIES” (SHANGHAITECH UNIVERSITY, priority 2019, published 2023).
# Columns and labels:
# [1] = biological target: T1, hASIC1a-mCherry fusion on a stable cell line (human, UniProt P78348 1-528); test: cell-based or functional assay
# T1 sequence (looked up): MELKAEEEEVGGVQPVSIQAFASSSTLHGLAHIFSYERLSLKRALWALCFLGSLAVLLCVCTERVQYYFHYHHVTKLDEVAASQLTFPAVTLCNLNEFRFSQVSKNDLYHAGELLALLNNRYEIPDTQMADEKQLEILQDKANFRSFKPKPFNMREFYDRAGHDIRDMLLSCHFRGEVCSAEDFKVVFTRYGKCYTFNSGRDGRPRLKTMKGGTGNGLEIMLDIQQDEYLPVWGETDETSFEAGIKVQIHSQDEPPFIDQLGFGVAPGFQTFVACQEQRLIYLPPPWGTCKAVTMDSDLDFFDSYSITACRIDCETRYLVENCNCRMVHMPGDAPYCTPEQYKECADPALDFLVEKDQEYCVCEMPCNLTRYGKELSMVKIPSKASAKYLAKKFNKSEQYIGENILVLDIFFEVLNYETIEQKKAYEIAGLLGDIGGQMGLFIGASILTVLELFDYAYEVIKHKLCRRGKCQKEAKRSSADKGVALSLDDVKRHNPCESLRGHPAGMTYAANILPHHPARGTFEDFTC
# [2] = biological target: T2, hASIC1a on CHO-K1 cells stably expressing hASIC1a (human, UniProt P78348 1-528); test: cell-based or functional assay
# T2 sequence (looked up): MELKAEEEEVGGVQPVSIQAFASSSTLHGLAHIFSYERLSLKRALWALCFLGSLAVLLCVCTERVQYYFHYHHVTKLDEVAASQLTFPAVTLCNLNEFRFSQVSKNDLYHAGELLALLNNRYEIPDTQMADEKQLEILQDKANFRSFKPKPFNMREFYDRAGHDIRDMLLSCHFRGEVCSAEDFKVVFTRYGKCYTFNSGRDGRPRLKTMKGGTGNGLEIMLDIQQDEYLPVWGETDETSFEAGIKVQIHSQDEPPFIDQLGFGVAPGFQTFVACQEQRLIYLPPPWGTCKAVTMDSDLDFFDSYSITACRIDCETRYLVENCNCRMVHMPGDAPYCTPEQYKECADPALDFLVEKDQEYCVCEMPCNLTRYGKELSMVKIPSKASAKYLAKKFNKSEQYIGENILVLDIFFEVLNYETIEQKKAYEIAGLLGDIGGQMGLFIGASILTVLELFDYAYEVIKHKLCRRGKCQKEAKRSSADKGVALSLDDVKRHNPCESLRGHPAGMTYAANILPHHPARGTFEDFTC
# [3] = biological target: T3, recombinant extracellular domain of hASIC1a (hASIC1a-ECD) (human, UniProt P78348 67-427, limits assumed); test: SPR, Biacore T200, hASIC1a-ECD immobilized, IgG1 as analyte
# T3 construct: extracellular domain; ASIC1a is one splice isoform of it; also called trimeric ectodomain of hASIC1a
# T3 sequence (looked up): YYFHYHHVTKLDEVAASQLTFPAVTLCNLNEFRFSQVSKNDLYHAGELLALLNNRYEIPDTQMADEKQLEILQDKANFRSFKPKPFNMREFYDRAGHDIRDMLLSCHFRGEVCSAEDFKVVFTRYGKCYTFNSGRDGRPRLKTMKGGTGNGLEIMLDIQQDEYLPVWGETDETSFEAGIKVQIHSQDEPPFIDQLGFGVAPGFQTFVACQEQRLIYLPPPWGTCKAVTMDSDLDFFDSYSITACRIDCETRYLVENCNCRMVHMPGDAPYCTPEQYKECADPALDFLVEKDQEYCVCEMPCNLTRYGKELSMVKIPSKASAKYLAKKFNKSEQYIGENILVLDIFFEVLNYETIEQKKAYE
# Method: Binding affinities of four affinity-matured antibodies in IgG1 format (ASC06-01-IgG1 through ASC06-04-IgG1) to the recombinant extracellular domain of hASIC1a(hASIC1a-ECD) were measured using the Biacore T200™ (GE Healthcare). The ASC06-IgG1 antibody was used as a positive control. All manipulations were followed by the user guide of manufacturer. Briefly, was hASIC1a was immobilized, and serial dilutions of the indicated antibodies were added as analytes. The analysis of the results were processed in BIA Evaluation Software™.
# [4] = biological target: T4, rat ASIC1a (rASIC1a-eYFP) (Rattus norvegicus, UniProt P55926); test: FACS-based binding assay, transiently transfected CHO-K1 cells (species selectivity); details: double positive population
# T4 construct: expressed in transfected cells; host or cells: CHO-K1 (transient)
# T4 sequence (P55926 1-526): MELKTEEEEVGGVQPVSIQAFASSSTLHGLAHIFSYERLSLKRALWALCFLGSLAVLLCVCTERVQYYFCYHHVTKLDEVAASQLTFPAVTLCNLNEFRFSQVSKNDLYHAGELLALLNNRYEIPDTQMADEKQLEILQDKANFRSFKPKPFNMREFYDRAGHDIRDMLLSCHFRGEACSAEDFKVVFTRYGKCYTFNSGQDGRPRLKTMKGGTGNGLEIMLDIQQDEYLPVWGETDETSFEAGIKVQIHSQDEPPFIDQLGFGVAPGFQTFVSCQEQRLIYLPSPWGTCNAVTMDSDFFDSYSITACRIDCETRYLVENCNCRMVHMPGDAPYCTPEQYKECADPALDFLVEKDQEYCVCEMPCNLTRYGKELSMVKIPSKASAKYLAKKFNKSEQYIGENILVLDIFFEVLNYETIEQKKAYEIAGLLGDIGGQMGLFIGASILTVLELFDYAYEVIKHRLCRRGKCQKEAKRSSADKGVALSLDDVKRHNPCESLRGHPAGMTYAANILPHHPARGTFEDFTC
# Method: (§1) To investigate the species selectivity of ASC06-IgG1 affinity-matured antibodies, plasmids encoding fusion proteins of eYFP with […] homologs of ASIC1a were constructed. These plasmids included those encoding human ASIC1a (hASIC1a-eYFP), mouse ASIC1a (mASIC1a-eYFP), and rat ASIC1a (rASIC1a-eYFP). CHO-K1 cells were transiently transfected with the ASIC1a-eYFP plasmids, and a fluorescence activated cell sorting (FACS)-based binding assay was carried out to determine binding to the homologs or isoforms of ASIC1a expressed on the cell surface. An isotype control was used as a negative control for binding (NC). ASC06-IgG1 was used as a positive control. Summarily, the CHO-K1 cells expressing the ASIC1a-eYFP (green) homologs were stained with the indicated antibody (red) and subjected to FACS.
# [5] = biological target: T5, human ASIC1a (hASIC1a-eYFP) (Homo sapiens, UniProt P78348); test: as above; details: double positive population
# T5 construct: expressed in transfected cells; host or cells: CHO-K1 (transient)
# T5 sequence (P78348 1-528): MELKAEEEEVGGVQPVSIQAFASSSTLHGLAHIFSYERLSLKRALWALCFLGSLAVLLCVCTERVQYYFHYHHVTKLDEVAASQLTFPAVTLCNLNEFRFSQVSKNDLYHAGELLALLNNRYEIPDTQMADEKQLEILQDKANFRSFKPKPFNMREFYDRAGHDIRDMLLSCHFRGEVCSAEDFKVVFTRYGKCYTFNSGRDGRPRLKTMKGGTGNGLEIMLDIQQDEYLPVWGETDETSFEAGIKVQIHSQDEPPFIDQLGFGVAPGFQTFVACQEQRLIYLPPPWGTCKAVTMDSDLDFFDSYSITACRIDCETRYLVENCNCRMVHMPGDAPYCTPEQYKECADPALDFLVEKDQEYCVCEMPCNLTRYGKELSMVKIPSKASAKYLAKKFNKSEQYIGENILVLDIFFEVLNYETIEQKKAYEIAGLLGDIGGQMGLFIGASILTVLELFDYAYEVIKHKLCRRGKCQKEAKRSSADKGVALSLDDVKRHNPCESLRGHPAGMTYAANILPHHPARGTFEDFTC
# Method: as §1
# ASIC1a = biological target: T6, ASIC1a (Homo sapiens, UniProt P78348); test: Patch clamp whole-cell recording of acid-induced hASIC1a currents; type: cell-based; details: 100 nM antibody
# T6 construct: expressed in transfected cells
# T6 sequence (P78348 1-528): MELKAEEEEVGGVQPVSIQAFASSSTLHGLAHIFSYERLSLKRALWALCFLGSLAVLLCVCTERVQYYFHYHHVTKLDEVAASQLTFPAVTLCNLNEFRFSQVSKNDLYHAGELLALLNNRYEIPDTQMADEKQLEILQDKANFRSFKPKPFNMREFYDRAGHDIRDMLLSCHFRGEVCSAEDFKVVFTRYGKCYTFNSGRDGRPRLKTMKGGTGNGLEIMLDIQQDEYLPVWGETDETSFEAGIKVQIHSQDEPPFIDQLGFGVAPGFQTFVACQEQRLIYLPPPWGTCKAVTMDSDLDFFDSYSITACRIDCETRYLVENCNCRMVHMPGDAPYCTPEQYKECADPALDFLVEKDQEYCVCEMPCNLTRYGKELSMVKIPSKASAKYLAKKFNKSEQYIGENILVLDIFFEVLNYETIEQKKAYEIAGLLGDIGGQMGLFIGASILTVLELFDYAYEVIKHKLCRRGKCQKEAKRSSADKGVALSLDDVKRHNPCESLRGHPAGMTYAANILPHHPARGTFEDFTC
# Method: FIGS. 4A-4E show the effect of affinity-matured ASC06-IgG1 derivative antibodies on the hASIC1a currents. Shown are the representative current traces recorded from single CHO-K1 cells stably expressing hASIC1a in the absence or presence of 100 nM ASC06-IgG1 (FIG. 4A) or affinity-matured ASC06-IgG1 versions ASC06-01-IgG1 (FIG. 4B), ASC06-02-IgG1 (FIG. 4C), ASC06-03-IgG1 (FIG. 4D), or ASC06-04-IgG1 (FIG. 4E). Amiloride (30 μM) was used as a positive control. “Wash” represents the recovery of the current after the treatment of 100 nM indicated antibody followed by 15 min infusion of washing solution.
# Whether the affinity-matured ASC06-IgG1 derivative antibodies have an effect on the acid-induced, hASIC1a-mediated electrical current in cells was tested. An hASIC1a overexpressing stable cell line was used as a model for these studies. Extracellular pH was decreased from pH 7.4 to pH 6.0 and the amplitudes of the hASIC1a-mediated inward currents were recorded in the whole-cell recording mode in the presence of the affinity-matured ASC06-IgG1 derivative antibodies (FIGS. 4A-4E). The ASIC1a inhibitor amiloride (30 μM) was used as a positive control for the inhibition of ASIC1a currents.
Molecule,"IC50 for the inhibition of acid induced ASIC1a-mediated calcium influx, FLIPR-based assay [1] [nM]","Percent inhibition of the acid induced-hASIC1a currents, 30 nM antibody (Patch Clamp) [2] [%]","Percent inhibition of the acid induced-hASIC1a currents, 100 nM antibody (Patch Clamp) [2] [%]",Kd [3] [nM],koff [3] [s⁻¹],kon [3] [M⁻¹ s⁻¹],binding to cells expressing rASIC1a-eYFP [4],binding to cells expressing hASIC1a-eYFP [5],blockage of ASIC1a-mediated currents compared to ASC06-IgG1 (ASIC1a)
"ASC06-03-IgG1 (antibody, V domains shown, Full length IgG1) VH: QVQLQQSGGGLVQPGGSLRLSCAASGFTFSSYAMSWVRQAPGKGLEWVSAISGSGGSTYYADSVKGRFTISRDNSKNTLYLQMNSLRAEDTAVYYCAKDSFYGRAKGSWGQGTLVTVSS VL: QSALTQPASVSGSPGQSITISCTGTSSDVGAYNYVSWYQQQPGKAPKLMIYGVSNRPSGVSNRFSGSKSGNAASLTISGLQAEDEADYYCSSYTSSSTYVFGTGTKLTVLG",2.61,79.4,89.7,0.12,8.2e-05,680000,,,
"ASC06-03-IgG1: affinity-matured ASC06 derivative, VH-CDR3 DSFYGRAKGS (SEQ ID NO: 15) (antibody, V domains shown) VH: QVQLQQSGGGLVQPGGSLRLSCAASGFTFSSYAMSWVRQAPGKGLEWVSAISGSGGSTYYADSVKGRFTISRDNSKNTLYLQMNSLRAEDTAVYYCAKDSFYGRAKGSWGQGTLVTVSS VL: QSALTQPASVSGSPGQSITISCTGTSSDVGAYNYVSWYQQQPGKAPKLMIYGVSNRPSGVSNRFSGSKSGNAASLTISGLQAEDEADYYCSSYTSSSTYVFGTGTKLTVLG",,,,,,,bound,bound,stronger blockage
"ASC06-IgG1: parental (WT) ASIC1a-specific antagonist antibody; VL SEQ ID NO: 2, VH SEQ ID NO: 7, VH-CDR3 DSFYGYSKGD (antibody, V domains shown, IgG1 constant regions; Amino acid sequence VH of ASC06; Amino acid sequence VL of ASC06) VH: QVQLQQSGGGLVQPGGSLRLSCAASGFTFSSYAMSWVRQAPGKGLEWVSAISGSGGSTYYADSVKGRFTISRDNSKNTLYLQMNSLRAEDTAVYYCAKDSFYGYSKGDWGQGTLVTVSS VL: QSALTQPASVSGSPGQSITISCTGTSSDVGAYNYVSWYQQQPGKAPKLMIYGVSNRPSGVSNRFSGSKSGNAASLTISGLQAEDEADYYCSSYTSSSTYVFGTGTKLTVLG",,,,,,,bound,bound,
